Source: patent US20250281611A1 (BIOSCEPTRE AUST, published 2025)

Molecular target: T1, EGFR (UniProt P00533 25-1210)
T1 construct: whole, on cells
Assay: flow cytometry, MDA-MB 231 and PC-3 cells

binding result: binds
B1: EGFR bridging molecule (E200 + EGFR binder, Matuzumab, B035) (Fab, V domains shown)
VH: QVQLVQSGAEVKKPGASVKVSCKASGYTFTSHWMHWVRQAPGQGLEWIGEFNPSNGRTNYNEKFKSKATMTVDTSTNTAYMELSSLRSEDTAVYYCASRDYDYDGRYFDYWGQGTLVTVSS
VL: DIQMTQSPSSLSASVGDRVTITCSASSSVTYMYWYQQKPGKAPKLLIYDTSNLASGVPSRFSGSGSGTDYTFTISSLQPEDIATYYCQQWSSHIFTFGQGTKVEIKR
